Target: SARS-CoV-2 RBD (Wuhan-1), monomeric, His-Avitag (SARS-CoV-2, Wuhan-1) (UniProt P0DTC2)
Assay: SPR

With CC12.1 IgG (antibody) as the substance, how does the Kd read?
Its Kd is 6 nM.

Reference: publication PMC9367177
